# Assay results taken from IntAct's records for PubMed 23263556.
# B1: Nuclear factor of activated T-cells, cytoplasmic 1 (Homo sapiens), O95644 (parent)
# chain: MPSTSFPVPSKFPLGPAAAVFGRGETLGPAPRAGGTMKSAEEEHYGYASSNVSPALPLPTAHSTLPAPCHNLQTSTPGIIPPADHPSGYGAALDGGPAGYFLSSGHTRPDGAPALESPRIEITSCLGLYHNNNQFFHDVEVEDVLPSSKRSPSTATLSLPSLEAYRDPSCLSPASSLSSRSCNSEASSYESNYSYPYASPQTSPWQSPCVSPKTTDPEEGFPRGLGACTLLGSPRHSPSTSPRASVTEESWLGARSSRPASPCNKRKYSLNGRQPPYSPHHSPTPSPHGSPRVSVTDDSWLGNTTQYTSSAIVAAINALTTDSSLDLGDGVPVKSRKTTLEQPPSVALKVEPVGEDLGSPPPPADFAPEDYSSFQHIRKGGFCDQYLAVPQHPYQWAKPKPLSPTSYMSPTLPALDWQLPSHSGPYELRIEVQPKSHHRAHYETEGSRGAVKASAGGHPIVQLHGYLENEPLMLQLFIGTADDRLLRPHAFYQVHRITGKTVSTTSHEAILSNTKVLEIPLLPENSMRAVIDCAGILKLRNSDIELRKGETDIGRKNTRVRLVFRVHVPQPSGRTLSLQVASNPIECSQRSAQELPLVEKQSTDSYPVVGGKKMVLSGHNFLQDSKVIFVEKAPDGHHVWEMEAKTDRDLCKPNSLVVEIPPFRNQRITSPVHVSFYVCNGKRKRSQYQRFTYLPANVPIIKTEPTDDYEPAPTCGPVSQGLSPLPRPYYSQQLAMPPDPSSCLVAGFPPCPQRSTLMPAAPGVSPKLHDLSPAAYTKGVASPGHCHLGLPQPAGEAPAVQDVPRPVATHPGSPGQPPPALLPQQVSAPPSSSCPPGLEHSLCPSSPSPPLPPATQEPTCLQPCSPACPPATGRPQHLPSTVRRDESPTAGPRLLPEVHEDGSPNLAPIPVTVKREPEELDQLYLDDVNEIIRNDLSSTSTHS
# Variants of: B1
# Conditions: with jak3_human JAK3, P52333
# Chain of jak3_human JAK3, P52333 (P52333 whole entry): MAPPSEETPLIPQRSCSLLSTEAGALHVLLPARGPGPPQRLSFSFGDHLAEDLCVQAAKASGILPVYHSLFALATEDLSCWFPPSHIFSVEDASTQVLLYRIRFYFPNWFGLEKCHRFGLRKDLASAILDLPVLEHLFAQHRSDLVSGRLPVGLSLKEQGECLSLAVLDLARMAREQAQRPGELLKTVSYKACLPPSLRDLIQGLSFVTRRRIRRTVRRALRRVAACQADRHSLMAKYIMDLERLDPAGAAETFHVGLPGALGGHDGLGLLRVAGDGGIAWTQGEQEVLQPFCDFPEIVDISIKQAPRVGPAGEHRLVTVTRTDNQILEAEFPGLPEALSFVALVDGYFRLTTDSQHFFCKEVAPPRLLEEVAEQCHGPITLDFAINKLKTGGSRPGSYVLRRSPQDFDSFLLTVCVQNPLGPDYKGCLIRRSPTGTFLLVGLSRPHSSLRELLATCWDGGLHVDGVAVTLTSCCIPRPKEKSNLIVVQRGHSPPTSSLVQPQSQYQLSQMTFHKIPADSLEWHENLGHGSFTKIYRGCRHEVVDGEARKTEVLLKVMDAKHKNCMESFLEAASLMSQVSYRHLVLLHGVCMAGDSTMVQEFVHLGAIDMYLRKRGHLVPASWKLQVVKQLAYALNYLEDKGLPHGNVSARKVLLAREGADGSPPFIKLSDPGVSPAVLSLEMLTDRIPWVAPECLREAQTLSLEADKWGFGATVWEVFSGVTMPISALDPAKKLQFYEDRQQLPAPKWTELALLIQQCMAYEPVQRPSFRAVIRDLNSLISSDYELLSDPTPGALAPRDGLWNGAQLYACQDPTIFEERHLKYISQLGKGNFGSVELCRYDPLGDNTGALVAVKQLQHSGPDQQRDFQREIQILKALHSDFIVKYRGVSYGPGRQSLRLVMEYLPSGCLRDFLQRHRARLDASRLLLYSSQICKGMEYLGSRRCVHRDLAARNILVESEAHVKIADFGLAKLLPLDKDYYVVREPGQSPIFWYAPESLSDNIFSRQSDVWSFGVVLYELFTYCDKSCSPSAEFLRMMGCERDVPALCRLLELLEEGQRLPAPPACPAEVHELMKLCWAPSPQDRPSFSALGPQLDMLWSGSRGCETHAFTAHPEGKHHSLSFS
row,Variant,effect of a mutation on the interaction
1,Y371A,disrupting interaction
